From US20170204140A1, “ANTAGONISTIC PEPTIDES” (Deakin University, priority 2014, published 2017)
Ends that are not written are not given here.

Assays:
CHO-APP cells = test: Aβ secretion from CHO-APP cells, sandwich ELISA; type: cell-based, Chinese hamster; conditions: 5 hrs treatment; 1 nM to 1 μM
Protocol: Cells were treated for 5 hrs with compound concentrations ranging from 1 nM to 1 μM. Aβ secreted in the cell media was quantified using a sandwich ELISA. Data are calculated relative to Aβ secreted from control cells treated with DMSO (vehicle) alone.
Cells are seeded in 12-well plates and treated for 6-24 hrs with peptide or vehicle. After treatment, the cells are examined under a light microscope to evaluate toxicity. Culture media is collected, centrifuged and stored at −20° C. for Aβ ELISA and for sAPPβ analysis. Cells are harvested in PBS and cell pellets collected by centrifugation and frozen at −80° C. until use. Pellets are homogenized in RIPA buffer (0.1% SDS, 0.5% sodium deoxycholate, 1% Triton X-100, 150 mM NaCl in 50 mM Tris-HCl, pH 7.4) to assay for BACE1 enzymatic activity. The data is normalised to protein concentration determined by the BCA.
0.5 μg of mouse monoclonal antibody WO2 (Aβ1-16) is coated in 384-well plates. After blocking with hydrolysed casein and washing with PBS containing 0.05% Tween 20 (PBS-T), biotinylated IE8 antibody (Aβ18-22) (20 ng dilution in 10 μL blocking buffer) is added followed by culture media samples (50 μL/well). A standard curve of Aβ peptide (0.03-3 ng/well) is run in parallel. […] The plates are read in a Wallac Victor 2 Multicounter instrument and data calculated relative to the Aβ peptide standard curve.

BACE1 = BACE1 (Homo sapiens, UniProt P56817); test: BACE1 inhibition assay based on cleavage of fluorogenic APP substrate; type: biochemical; conditions: peptide 100 nM and 200 nM; versus 0 nM control
Sequence of BACE1 (P56817 46-501, species assumed): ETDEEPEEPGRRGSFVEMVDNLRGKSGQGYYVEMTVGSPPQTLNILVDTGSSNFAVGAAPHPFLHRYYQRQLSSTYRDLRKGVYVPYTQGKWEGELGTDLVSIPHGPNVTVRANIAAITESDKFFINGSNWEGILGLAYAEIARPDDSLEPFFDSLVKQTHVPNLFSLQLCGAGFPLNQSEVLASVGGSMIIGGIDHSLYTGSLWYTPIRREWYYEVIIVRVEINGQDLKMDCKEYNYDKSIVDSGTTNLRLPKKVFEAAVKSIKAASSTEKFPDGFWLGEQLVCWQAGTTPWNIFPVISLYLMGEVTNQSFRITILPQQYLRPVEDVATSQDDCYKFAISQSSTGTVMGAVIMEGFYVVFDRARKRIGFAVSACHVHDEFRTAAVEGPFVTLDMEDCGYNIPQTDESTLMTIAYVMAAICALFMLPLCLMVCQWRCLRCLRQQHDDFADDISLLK
Protocol: The peptide concentrations of 100 nM and 200 nM show a significant (*) difference to the upper limit when compared with the negative control. The mean fluorescent units are a representation of the cleaved product of APP by BACE1 (P<0.0 5).
A fluorescent BACE1 activity assay kit (Sigma-Aldrich, NSW, Australia), is used to not only show the cleavage of APP by BACE1, but also the inhibitors' ability to prevent cleavage of APP by BACE1. A measurement of fluorescence expresses the resulting cleaved APP product, which indirectly measures the activity of BACE1 in cleaving APP. Assays are conducted in triplicate with (1, 10, 100 and 1000 nM) or without the peptide inhibitors, as negative controls. Commercially available BACE1 inhibitors (STA-200 and Merck Compound IV) are used as references. Data derived from assays at various substrate concentrations are used to determine Ki values and the mode of inhibition (competitive/allosteric) using the Lineweaver-Burk method.

endogenous BACE1 = molecular target: T1, endogenous BACE1 (Homo sapiens, UniProt P56817); test: BACE1 enzyme activity assay on M17 human neuroblastoma cell lysate; type: biochemical; conditions: 200 nM peptide
T1 construct: endogenous in cells; host or cells: M17 human neuroblastoma cells (lysate)
T1 sequence (P56817 46-501): as the sequence (P56817 46-501, species assumed) above
Protocol: (§1) The M17 cell lysate was subjected to BACE1 enzyme activity assay and was read on a fluorometer in duplicate with one experimental group of a positive control, without the peptide inhibitor (0 nM), and an experimental group, with an added 200 nM concentration of the peptide inhibitor. […] The mean fluorescent units are a representation of the cleaved product of APP by BACE1 (P<0.0 5). This indicates the production of BACE1 in cultured human neuronal cells and the usefulness of this cell line.
as §1, with “5).” for “5). This indicates the production of BACE1 in cultured human neuronal cells and the usefulness of this cell line.”
The CelLytic extraction kit (Sigma-Aldrich) is used to prepare total protein extracts from M17 cells, with protein concentrations determined by BCA protein assay (Thermo Scientific Pierce, NH, USA), following the manufacturer's instructions.
Cell lysates obtained above are subjected to BACE1 enzyme assays, as described above.

IL-13 binding to IL-4Rα = molecular target: T2, IL-13 binding to IL-4Rα (Homo sapiens, UniProt P24394); test: Inhibition ELISA of IL-13 binding to IL-4Rα; conditions: pre-incubation of IL-4Rα with nM amounts of the peptide
T2 construct: purchased SBH Sciences (IL-4Rα); Sigma-Aldrich (IL-13)
T2 sequence (P24394 26-232 limits assumed): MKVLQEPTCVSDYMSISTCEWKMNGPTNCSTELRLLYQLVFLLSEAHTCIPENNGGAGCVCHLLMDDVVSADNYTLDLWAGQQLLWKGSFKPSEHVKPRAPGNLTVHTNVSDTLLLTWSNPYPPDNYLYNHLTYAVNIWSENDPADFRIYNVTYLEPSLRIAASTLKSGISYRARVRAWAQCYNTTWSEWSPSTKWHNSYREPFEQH
From the text: (§2) After extensive washing, HRP will be colorimetrically detected with the substrate o-phenylenediamine (Sigma-Aldrich) and read at 492 nm, according to our established protocols.

IL-4 binding to IL-4Rα = molecular target: T3, IL-4 binding to IL-4Rα (Homo sapiens, UniProt P24394); test: Inhibition ELISA of IL-4 binding to IL-4Rα; conditions: pre-incubation of IL-4Rα with nM amounts of the peptide
T3 construct: purchased SBH Sciences (IL-4Rα); Sigma-Aldrich (IL-4)
T3 sequence (P24394 26-232 limits assumed): T2 sequence (P24394 26-232 limits assumed)
From the text: as §2

[1] = tested on: JAK-STAT6 signaling in HEK-Blue cells; test: JAK-STAT6 signaling in HEK-Blue cells (SEAP reporter, QUANTI-Blue); type: cell-based
Protocol: Positive Control (PC) included cells treated with IL-4 cytokine alone. Control 1 (C1) included cells incubated with peptide antagonist only and Control 2 (C2) included cells without any treatment. The results represent the mean of 3 replicates within an experiment and the error bars show standard deviation. P<0.05* denotes significance of optical density (OD) readings compared to positive control (PC).
The percentage values represented here are a reflection of treatments used in FIG. 9 (75 μM, 150 μM and 225 μM). […] Positive control is denoted at 0%, which is used as a referral point for the standard value at which inhibition begins.
Activation of this pathway leads to SEAP secretion in the supernatant and is easily detected using QUANTI-Blue medium that changes colour to purple/blue in the presence of SEAP, following manufacturer's instructions. Cells are grown and maintained in DMEM medium with 10% FCS at 37° C. in a 5% CO2-humidified chamber, following the manufacturer's instructions and established cell culture techniques. […]
In FIG. 9, six treatment wells were used in total; 4 wells treated with peptide N1 and 2 wells without peptide as positive and negative controls (shown in results section). […] The subsequent results were read using an xMark microplate absorbance spectrophotometer (Bio-Rad) at a wavelength of 640 nm

| Compound | Aβ secreted in the cell media relative to DMSO control (CHO-APP cells) | inhibition of BACE1 activity (BACE1) | inhibition of endogenous BACE1 activity (endogenous BACE1) | reduction of IL-13 binding to IL-4Rα (IL-13 binding to IL-4Rα) [%] | reduction of IL-4 binding to IL-4Rα (IL-4 binding to IL-4Rα) [%] | inhibition of JAK-STAT6 signaling ([1]; 225 μM peptide, IL-4 stimulated HEK-Blue cells, dose-dependent (75, 150, 225 μM)) | JAK-STAT6 signaling triggered by peptide alone ([1]; peptide without IL-4) |
| --- | --- | --- | --- | --- | --- | --- | --- |
| C[C@@H](NC(=O)c1cc(C(=O)N[C@@H](Cc2ccccc2)[C@H](O)CNC2CC2)cc(N(C)S(C)(=O)=O)c1)c1ccccc1 [Compound IV] | inhibits Aβ secretion in a dose dependent manner | – | – | – | – | – | – |
| FHESWPTFLSPS [peptide antagonist] | – | more than 40% | more than 50% | 50 | 25 | up to 59% | did not trigger a non-specific JAK-STAT6 signaling |
